For assay [1], the target named is T1, rat GalR3 receptor (rat, UniProt O88626 1-370).
T1 construct: Full-length receptor (370 amino acids) expressed from pCR3.1 in COS-7 cells; The assay used membrane preparations of the transfected cells; also called rat type 3 galanin receptor; cellular receptors
T1 chain: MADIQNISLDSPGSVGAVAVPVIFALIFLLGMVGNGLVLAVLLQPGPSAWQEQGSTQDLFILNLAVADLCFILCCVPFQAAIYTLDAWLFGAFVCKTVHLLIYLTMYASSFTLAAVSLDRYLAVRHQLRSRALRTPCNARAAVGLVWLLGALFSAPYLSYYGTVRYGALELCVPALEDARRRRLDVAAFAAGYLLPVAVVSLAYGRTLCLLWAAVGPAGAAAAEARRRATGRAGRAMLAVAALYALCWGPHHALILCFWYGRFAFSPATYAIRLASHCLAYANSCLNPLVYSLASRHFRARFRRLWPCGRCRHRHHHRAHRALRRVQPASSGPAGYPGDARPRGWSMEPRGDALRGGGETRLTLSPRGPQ
The assay can be described thus: competition with 0.3 nM 125I-porcine galanin on membranes of COS-7 cells transfected with rat GalR3; filtration; Cheng-Prusoff. As to the method: (§1) Binding of ¹²⁵I-porcine-galanin to the membrane preparations was performed in a buffer containing 25 mM Tris-Cl (pH7.4), 1% bovine serum albumin (w/v), 0.1% bacitracin, 2 μg/ml leupeptin and 10 mM MgCl₂. Ligand saturation plots were performed using 20 μg amounts of the membrane protein in a total volume of 200 μl using 3 μM cold galanin to determine nonspecific binding. Peptide competition studies were performed in a total volume of 200 μl, containing 20 μg of membrane protein and 0.3 nM ¹²⁵I-porcine galanin. Incubations were carried out at room temperature for 1 hour and were terminated by rapid vacuum filtration through MULTISCREEN FB (glass fiber B) Filter Plates (Millipore, Bedford, Mass.) which had been pre-treated with 0.30% polyethylenimine to prevent non-specific binding of the radioligand to the filter. The filters were then washed three times with 100 μl of PBS (pH7.4). All data were analyzed using non-linear regression software (Prism, GraphPad, San Diego, Calif.), and the Ki was calculated using the method of Cheng and Prusoff [Biochem. Pharmacol. 22:3099-3108 (1973)].
The curves shown indicate the fits of the data points by nonlinear regression for one-site binding.

In assay [2] the target is T1, rat GalR3 receptor. Briefly: radioligand binding to membranes of COS-7 cells transfected with rat GalR3. As to the method: as §1

5 molecules from patent US20090075297A1 (SCHERING, published 2009) can be followed below.

No end group written: not given here.

In turn, TLNSAGYLLGPHAIDNHRSFSDKHGLT (peptide, UniProt P10683 35-61, looked up, range 3-29) [rat galanin(3-29)] yielded a Ki in the assay with rat GalR3 receptor [1] greater than 1000 nM.

B1: rat galanin(2-29) (peptide, UniProt P10683 34-61, looked up)
peptide: WTLNSAGYLLGPHAIDNHRSFSDKHGLT
notes: range 2-29; also called Rat galanin 92-29
Molecule B1 yielded a Ki in the assay with rat GalR3 receptor [1] of 14 nM.

B2: 125I-porcine galanin (ligand, UniProt P07480 33-61, looked up)
peptide: GWTLNSAGYLLGPHAIDNHRSFHDKYGLA
modifications: ends and bridges not checked; also: 125I radiolabel, residue not given here
notes: Bought radioligand; also called labeled galanin
As for B2, the binding result with rat GalR3 receptor [2] was “binds”.

Consider LLGPHAIDNHR [galanin(10-20)], for which the Ki in the assay with rat GalR3 receptor [1] was greater than 1000 nM.

In the assay with rat GalR3 receptor [1], GWTLNSAGYLLGPHAIDNHRSFSDKHGLT (ligand, UniProt P10683 33-61, looked up, also called galanin itself) [rat galanin] gave a Ki of 1.2 nM.

One may read the Ki as the dissociation constant of the complex between target and ligand, obtained from inhibition or displacement. A lower Ki goes with a stronger hold on the target.
